Where a chain is given by its changes, count along the chain named. In names and notes the source's numbering stands.
B1: CAL1WT-V5 (in S2 cells), Q9VEN2 W22R; F29R (protein)
chain: MANAVVDEETLEAMVYERSKARSSKMADRASLEDGMEIDVAEFDNLFHGEDEDPDLDDVAKEAVEDNVPDEAKLEMGHINATSVTELTLILCANEDNEAKAEIEEILNQTVPVVEEHKRKWREAGLDRILDTFDEKQIEHHVGRWMRRHNSVYLEASPPKYLPPHHNSISDESDESMHSIDTARYIQQSRRRNAHMTNKNMTTIKMYRKHSHKRDELRAKYAYGDEQEHRHHMQAVLLRRRERERQLAYLASTPMQCVYSSGHHMRRKNLRKRRINSWMFDSASSSEEDTSFGGCDCHSCRRHYALSRSVYQSCPYGRGQREYHHRQMASRTMHTMRRQHTFDMEMDLRPRLPENECSCCNSDRLCSNVIHIANSSTEEWVVENRSNHLTQETQEKTRKQKHQPMDARKVSHQPVCSKGHEQKPLSSKATSVSKLVLSKEKYMQMFDSESSDEDNALAKKGLLCCSDKKKGMTFPTPNAAGKITHPTSSAKKAIRKEARPNGLAQIQEEGPTATNSPIESTYLPVAHMKSVSIDGSSGTSATFESPAKKAPKRGIRETSPLNGNELQQLISTIPIADEKASSLMEKVDNCIGRESFDDRNKDFMHMENSSTKTAVEKSTKQKRVSGKKSEIPKSIITNNEILEKNSTETLSEKQVAAKAKKQSVRKTGATGKPSTSRLKKSEKTKTTSSVTSTSKLEQVREEESDVSSEVLAKPKPQCSTTASILKQGGDGASNSEDDLQIALAMSKATYKEEQQKRKKTKREPSNKQPQSPAEKSMTVFNNQSVACNSTALANDTACYRVLPKRRGVKRAAAVSTTEEKTATNSSSSPTSSLEEMGSPTGGDPDCTVVTSTTGCEPPASERQEIPATIKITKRGILLHSPSAPEGASFTLTEQGLGKIIGERWARKYLKYHIGSRSFDSRHSVYYQPTPQLAAALSAPQDAQNIGNISGSSASDDDIFEQINRYGTVYSILENNSGDK
B2: CAL1WT-V5 (in S2 cells), Q9VEN2 F43R (protein)
chain: B1 chain with R22W, R29F, F43R

Target: T1, CENP-A-GFP-LacI (in S2 cells), Q9V6Q2
T1 chain: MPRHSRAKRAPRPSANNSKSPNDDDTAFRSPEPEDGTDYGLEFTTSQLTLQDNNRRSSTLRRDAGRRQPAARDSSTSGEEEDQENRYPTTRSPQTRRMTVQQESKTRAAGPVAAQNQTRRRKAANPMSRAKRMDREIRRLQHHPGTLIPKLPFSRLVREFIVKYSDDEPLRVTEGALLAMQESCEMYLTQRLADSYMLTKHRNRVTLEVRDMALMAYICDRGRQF
Assay: LacO/LacI tethering assay in Drosophila S2 cells (fluorescence intensity of CAL1-V5 at the tethering site)
Conditions: chain shown with the change;; parent: est. 1800; read off a plot

Row | Binder | response
1 | B1 | 120 a.u.
2 | B2 | 590 a.u.

— paper PMC7110144
